± gives the uncertainty stated by the source.
Assay: amyloid nucleation score (Sup35N fusion, yeast selection) (log enrichment); library NNK1; higher = more nucleation; inactive = no reads after selection
Method in brief: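 DiMSum was used to calculate nucleation scores as log enrichment of output over input reads, centred on the mode score of non-aggregating sequences. Sequences with fewer than 100 input reads were not scored. Input and output came from Illumina sequencing of plasmid inserts in psi-negative yeast expressing peptides of 20 random codons fused to Sup35N, induced 24 hours with 100 μM copper sulfate and then grown 7 days at 30°C on medium lacking adenine and uracil.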

Substance | amyloid nucleation score
DWFAECVFLRRTLESY | -0.601 ± 0.4
DWLFLEFGHFTMPEHTKELE | -0.68 ± 1.2
DWLHQSRL | 0.239 ± 0.42
DWVPLKSHISWLSVTRVLIV | 0.636 ± 0.46
DWVWWRTPSELVVYGADNWR | -0.328 ± 0.84
DWWLPGMLMNRGGLQIVVLV | -0.84 ± 1.1
DYFLCKFSTDDPCLVFISWE | inactive
DYIIPMLSI | 0.515 ± 0.9
DYKVTRPVDLVFDFGGIVYT | 0.714 ± 0.22
DYLLCLILAKVWDDSNGSWV | 1.52 ± 0.5
DYRIEVSLSVVYCFGLNMRN | 2.38 ± 0.082
DYSNERLTDGLRMGGTRVSG | 0.251 ± 0.54
EALNPVVLPSTN | 1.55 ± 0.14
EASLAPYEESELA | 1.76 ± 0.54
EAVSPYMYNYFRMANEQ | 0.311 ± 0.42
ECAIKG | 1.38 ± 0.69
ECRGQLSDKIVQYNRPEVYW | -0.199 ± 0.28
ECRMYLLTLVARRSRNPDNC | 1.03 ± 0.61
ECYLV | -0.663 ± 0.8
EDDFASMRLDSLRELVLHNR | inactive
EDLRLGSSYYEMANEASYGT | 1.82 ± 0.11
EDSYFYFRIEGISTVKCMAR | -0.427 ± 1.9

Substance | amyloid nucleation score
EECAFYSSMK | inactive
EECGLGCAVKA | 0.188 ± 0.19
EEFFMLRVDWIEEANQCKRE | 0.221 ± 0.47
EFDFK | -0.716 ± 0.74
EFELRASNLPFNVFPIGFSN | 1.07 ± 0.67
EFSLGSPIKWTNHGLVIKGM | 2.71 ± 0.13
EFVGVGNIVPFTTSWLIMGR | 0.271 ± 0.2
EGHARKKEWLTITPRER | 0.261 ± 0.38
EGRSWW | -0.691 ± 1.4
EGSQLSPAWFGYRDDGFTTM | 0.904 ± 1
EGYAWGPYLKLTRSKLRMSF | -0.374 ± 0.81
EHSSVCLESSQYVRMVVIKQ | 0.531 ± 0.66
EHTSGVDFIVNNLSECFTLR | inactive
EISVWVEALFSLYFRNWISG | 0.229 ± 0.84
EIYGKCLNPIGL | 0.53 ± 0.52
EKGRFVRLDERLYYLCVVWS | 0.163 ± 0.66
EKHEVVCIVKTVR | 0.424 ± 0.85
EKIQINQKG | 1.04 ± 0.66
EKSGAWSTVRRMISC | 0.374 ± 0.23
ELMCNTQSLSAETCFGKKSY | 0.97 ± 0.63
ELYCEVSSKIAGLDLFV | 0.57 ± 0.78
EMTCAWDGNELLFKQRRTIR | inactive

Substance | amyloid nucleation score
ENCFSCNEYCERYSPALCGQ | inactive
ENEAGATYDGMMVVGSELSS | 0.997 ± 0.43
ENERMTLHCGYFKNMCMFRF | 1.9 ± 0.22
ENKLNSPPWMLSLFTFLIVV | -0.242 ± 0.66
ENLGGWAPTLCYRRT | 0.187 ± 0.4
ENVCFLTKM | 0.423 ± 0.26
ENVSVIRFQRRYRSCPDHGL | 0.04 ± 0.46
EPFETQEVMSLNMCSNQMVF | 0.333 ± 0.27
EPSLERRRRPSEMVGAKGWI | -0.374 ± 1.1
ERDCAMISNLSNLTVNY | -0.616 ± 0.36
ERIRTHIRPIGCRRNLMVGW | 1.08 ± 0.63
ERRLTTFCCMWANLGVADGT | 0.436 ± 1
ERVSRSVGPACAREETKGST | 0.354 ± 0.77
ESAHNWWNPVSSYL | 1.06 ± 0.58
ESCKSVNCLMRQGDLRVTAW | -0.122 ± 0.3
ESHLRASAGLWLSAGRDCNG | 1.38 ± 0.63
ESLFLVCRPRRQVFIVSCRS | -0.716 ± 0.38
ESMDSWDYVLNISAEMVYCR | 0.366 ± 0.54
ESQSRGLMIVNGDFKD | 0.018 ± 0.37
ESSGRGCVPSEKIDEHGPVT | -0.319 ± 1
ESSNLYYYRTSHKKKTTLCS | -0.639 ± 1.7
ESTLNRVRVTALETVQQCLS | 0.275 ± 1.2

Substance | amyloid nucleation score
ETAEMIAVPDRAHF | 1.05 ± 0.57
ETEGSELFNFWAGVNWRRIQ | -0.425 ± 1.3
ETHVRAPSGGNAGPLRRGSS | -0.877 ± 0.52
ETSGSPFILIICIYELNVVM | 4.61 ± 0.07
ETTRNKAMNTFMLPFSQSCK | 0.39 ± 0.56
EVAFRVTCCSCWLISRNVGR | 2.77 ± 0.15
EVCVLRTLNRKNFDEPDNCI | 0.913 ± 0.56
EVGNCFLESPGMVYVVGRDR | 0.51 ± 0.52
EVIAGCGLRCRSSNHIVREM | 0.104 ± 0.36
EVILFNGLRMRAVPETWAST | 0.587 ± 0.4
EVNLHLGCVWLVRLCVSDDG | 2.08 ± 0.19
EVQSDSSEVRDTEYMDISSW | inactive
EVWNRTWIGEENVTGPFVPR | -0.012 ± 0.24
EWDSYMGPFAERMEYNVVFH | 0.398 ± 0.62
EWRFCKS | -0.335 ± 0.33
EWVALRCLDMEGAVAPLALV | 1.02 ± 0.28
EYLLNNPVGRCFDLLFNSIG | -0.881 ± 0.66
EYMFGYVSLSVDGSTLEFHD | 0.107 ± 0.24
EYSADTIGVIGLGTAPDERR | -0.239 ± 0.84

Reference: the supplement of paper PMC12042874
